Several values for one entry are separate records, joined by “and”; a condition that tells them apart may be missing. Equal entries are not always repeated.

The target of data set [1] is M54 protein (Streptococcus pyogenes). In words: mass photometry.
Data set [2] addresses M-related protein Mrp105 (mrp type 105), from GAS strain NS210 (Streptococcus pyogenes). In words: SPR. (In general: In SPR one partner is held on a chip, and binding of the other changes the refractive index at the surface.)
The target in data set [3] is M-related protein (Mrp), mrp type 8, from GAS strain NS931 (Streptococcus pyogenes). In words: SPR.
Data set [4] concerns the target M-related protein Mrp216 (mrp type 216), from GAS strain NS88.2 (Streptococcus pyogenes). In words: SPR.
The target of data set [5] is M-related protein (Mrp), mrp type 174, from GAS strain NS452 (Streptococcus pyogenes). In words: SPR.
The target in data set [6] is M-related protein (Mrp), mrp type 52, from GAS strain PRS66 (Streptococcus pyogenes). Put plainly: SPR.
Data set [7] has as its target M-related protein Mrp71 (mrp type 71), from GAS strain NS192 (Streptococcus pyogenes). In words: SPR.
Data set [8] deals with M-related protein Mrp193 (mrp type 193), from GAS strain NS80 (Streptococcus pyogenes). Put plainly: SPR.
For data set [9], the target named is M-related protein (Mrp), mrp type 298, from GAS strain 939–03 (Streptococcus pyogenes). In words: SPR.
Data set [10] concerns the target M-related protein (Mrp), mrp type 115, from GAS strain NS730 (Streptococcus pyogenes). Put plainly: SPR.
The target in data set [11] is M-related protein Mrp216 (mrp type 216), from GAS strain NS88.2 (Streptococcus pyogenes). In words: mass photometry.
Data set [12] addresses M1 protein (Streptococcus pyogenes) (UniProt Q99XV0). Put plainly: mass photometry.
The data set “mass photometry” deals with the molecule itself. In words: mass photometry.

M54 protein (natural protein): the stoichiometry N (as a rule, the number of molecules, sites or subunits per partner or assembly) in data set [1] was 2 and 4.
Consider human IgG2 (antibody), for which the dissociation constant Kd (commonly the free concentration of one partner at which half of the binding sites on the other are occupied at equilibrium, for simple one-to-one binding) is 7.03 nM in data set [2]; 21.8 nM in [3]; 8.12 nM in data set [4]; 11 nM in data set [5]; 6.4 nM in data set [6]; 15.4 nM in data set [7]. Also, the Kd was 8.17 nM in data set [8], 19.4 nM in data set [9] and 13.5 nM in [10].
In the case of human IgG4 (antibody), the Kd in data set [2] was 10.6 nM; in data set [3], 11.9 nM; in [4], 4.3 nM; in [5], 11.9 nM; in [6], 9.02 nM; in data set [7], 15.2 nM. The Kd in data set [8] was 6.5 nM; in data set [9] it was 13.4 nM; in data set [10], 7.4 nM.
On to human IgG1 (antibody), for which the Kd came out at 15.3 nM in data set [3]; 5.4 nM in [4]; 9.71 nM in data set [5]; 3 nM in data set [6]; 11.1 nM in data set [7]; 16 nM in [9]. The Kd in [10] stood at 13.4 nM.
Consider human IgG3 (antibody), for which the Kd was 208 nM in [2]; 256 nM in data set [3]; 302 nM in data set [4]; 152 nM in [5]; 145 nM in [6]; 220 nM in data set [7]. For the same molecule, the Kd in data set [8] was 201 nM; in data set [9], 226 nM; in [10], 244 nM.
Regarding “human IgG (pooled mixture of all IgG subclasses found in serum) (antibody)”, the Kd in data set [5] turned out to be 8.8 nM; in data set [7], 11.1 nM; in data set [8], 6.4 nM; in [9], 9.3 nM; in data set [10], 10.2 nM. The molecule also displayed a stoichiometry N (IgG per Mrp216 dimer) in data set [11] of 1. The stoichiometry N (IgG per M1 dimer) in data set [12] came to 1.
“M-related protein Mrp216 (mrp type 216), from GAS strain NS88.2 (natural protein)” showed a stoichiometry N in data set [11] of 2.

B1: M1 protein (natural protein)
chain: NGDGNPREVIEDLAANNPAIQNIRLRYENKDLKARLENAMEVAGRDFKRAEELEKAKQALEDQRKDLETKLKELQQDYDLAKESTSWDRQRLEKELEEKKEALELAIDQASRDYHRATALEKELEEKKKALELAIDQASQDYNRANVLEKELETITREQEINRNLLGNAKLELDQLSSEKEQLTIEKAKLEEEKQISDASRQSLRRDLDASREAKKQVEKDLANLTAELDKVKEDKQISDASRQGLRRDLDASREAKKQVEKDLANLTAELDKVKEEKQISDASRQGLRRDLDASREAKKQVEKALEEANSKLAALEKLNKELEESKKLTEKEKAELQAKLEAEAKALKEQLAKQAEELAKLRAGKASDSQTPDTKPGNKAVPGKGQAPQAGTKPNQNKAPMKETKRQLPST
As to B1, the “stoichiometry N” value in the data set “mass photometry” was 2.
